Paper PMC7409537, “CYP20-3 deglutathionylates 2-CysPRX A and suppresses peroxide detoxification during heat stress” (Life Science Alliance, 2020)
Residue numbers refer to the chain shown, from its start. Several values for one entry are separate records, joined by “and”; a condition that tells them apart may be missing. Identical values can stand only once.

Assays:
[1] = target: Cys to Ser mutant 2CPB C53S/C175S, tag-free (Arabidopsis thaliana); test: nonreducing SDS/PAGE (redox shift visualization); 1 μM (Fig 1) or 1.5 μM (Fig S2) recombinant 2CP incubated with/without 1 mM GSH (50 mM Tris-HCl pH 7.5, 25°C, 30 min), nonreducing SDS/PAGE, Coomassie stain (anti-GSH Western blot in Fig S2); oligomer size read from gel mobility; self-association
[2] = target: the molecule itself; test: as above
[3] = target: the molecule itself; test: nonreducing SDS/PAGE (redox shift visualization); 1 μM tag-free 2CP incubated with 1 mM GSH and 0.1% (vol/vol) Triton X-100 (partial denaturation), nonreducing SDS/PAGE, Coomassie stain; self-association
[4] = target: the molecule itself; test: nonreducing SDS/PAGE (redox shift visualization); 1.5 μM 2CP^GS incubated with CYP20-3 (0-5 μM) at 42°C for 15 min, nonreducing SDS/PAGE, Coomassie stain and anti-GSH Western blot; self-association of the 2CP after the treatment
[5] = target: the molecule itself; test: nonreducing SDS/PAGE with Western blot of plant extracts; total leaf protein extracts of Arabidopsis (WT Col-0, 2cpa, 2cpb, cyp20-3; untreated or 0, 3, 6 h post wounding), nonreducing SDS/PAGE, Western blot with anti-2CPA or anti-GSH antibody; oligomer size read from gel mobility

Molecule: Cys to Ser mutant 2CPB C53S/C175S, tag-free (enzyme)
- stoichiometry N [1]: 10

B1: GSH-glutathionylated 2-Cys peroxiredoxin A (2CPA^GS), tag-free recombinant (enzyme, Arabidopsis thaliana)
chain: GSHMKAQADDLPLVGNKAPDFEAEAVFDQEFIKVKLSDYIGKKYVILFFYPLDFTFVCPTEITAFSDRHSEFEKLNTEVLGVSVDSVFSHLAWVQTDRKSGGLGDLNYPLISDVTKSISKSFGVLIHDQGIALRGLFIIDKEGVIQHSTINNLGIGRSVDETMRTLQALQYIQENPDEVCPAGWKPGEKSMKPDPKLSKEYFSAI
modifications: S-glutathionylated by GSH (mixed disulfide GS-S on a Cys; the discussion names the resolving Cys, CR^53)
notes: four nonnative residues (Gly, Ser, His, Met) left at the N terminus after thrombin removal of the His-tag; C53 is C119 and C175 is C241 in Q96291; source: E. coli BL21 (DE3), purified (Ni-NTA), His-tag removed with thrombin, incubated with GSH; not shown: His-tag, N-terminal, cleaved
- stoichiometry N [2]: 2
- stoichiometry N [3]: 10

B2: 2-Cys peroxiredoxin B (2CPB), tag-free recombinant, not glutathionylated (enzyme, Arabidopsis thaliana)
chain: B1 chain with D38E, H69Y, S70E, I111V, V114I, H127P, I172V
notes: four nonnative residues (Gly, Ser, His, Met) left at the N terminus after thrombin removal of the His-tag; C53 is C126 and C175 is C248 in Q9C5R8; also called 2-CysPRX B; 2CP isoform B; source: E. coli BL21 (DE3), purified (Ni-NTA), His-tag removed with thrombin; not shown: His-tag, N-terminal, cleaved
- stoichiometry N [2]: 10 and 20

B3: 2-Cys peroxiredoxin A (2CPA), tag-free recombinant, not glutathionylated (enzyme, Arabidopsis thaliana)
chain: B1 chain
notes: four nonnative residues (Gly, Ser, His, Met) left at the N terminus after thrombin removal of the His-tag; C53 is C119 and C175 is C241 in Q96291; also called 2-CysPRX A; 2CP isoform A; source: E. coli BL21 (DE3), purified (Ni-NTA), His-tag removed with thrombin; not shown: His-tag, N-terminal, cleaved
- stoichiometry N [4]: 2

B4: GSH-glutathionylated 2-Cys peroxiredoxin B (2CPB^GS), tag-free recombinant (enzyme, Arabidopsis thaliana)
chain: B1 chain with D38E, H69Y, S70E, I111V, V114I, H127P, I172V
modifications: S-glutathionylated by GSH (mixed disulfide GS-S on a Cys)
notes: four nonnative residues (Gly, Ser, His, Met) left at the N terminus after thrombin removal of the His-tag; C53 is C126 and C175 is C248 in Q9C5R8; source: E. coli BL21 (DE3), purified (Ni-NTA), His-tag removed with thrombin, incubated with GSH; not shown: His-tag, N-terminal, cleaved
- stoichiometry N [4]: 10
- stoichiometry N [2]: 20

B5: endogenous GSH-glutathionylated 2CPA (2CPA^GS) in Arabidopsis leaf extracts (enzyme, UniProt Q96291 66-266, looked up)
chain: KAQADDLPLVGNKAPDFEAEAVFDQEFIKVKLSDYIGKKYVILFFYPLDFTFVCPTEITAFSDRHSEFEKLNTEVLGVSVDSVFSHLAWVQTDRKSGGLGDLNYPLISDVTKSISKSFGVLIHDQGIALRGLFIIDKEGVIQHSTINNLGIGRSVDETMRTLQALQYIQENPDEVCPAGWKPGEKSMKPDPKLSKEYFSAI
modifications: S-glutathionylated (as the paper names it: 2CPA^GS)
notes: 2-Cys peroxiredoxin A (2CPA), Arabidopsis thaliana, At3g11630, endogenous plastid protein; Bands in WT extracts detected with 2CP antibody and put down to 2CPA^GS by the authors; source: endogenous, Arabidopsis (Col-0) leaf total protein extract
- stoichiometry N [5]: 2

B6: His-tagged GSH-glutathionylated 2-Cys peroxiredoxin B (His-tagged 2CPB^GS) (enzyme, Arabidopsis thaliana, UniProt Q9C5R8 73-273, looked up)
chain: B5 chain with D34E, H65Y, S66E, I107V, V110I, H123P, I168V
modifications: S-glutathionylated by GSH (mixed disulfide GS-S on a Cys)
notes: C53 is C126 and C175 is C248 in Q9C5R8; Tagged version cloned BamHI/HindIII into pET28a; source: E. coli BL21 (DE3), purified (Ni-NTA), incubated with GSH
- stoichiometry N [2]: 20 and 10
